IntAct's records for PubMed 23542155

B1: Ligand-dependent nuclear receptor-interacting factor 1 (Homo sapiens), Q5T3J3 (parent)
chain: MSNNLRRVFLKPAEENSGNASRCVSGCMYQVVQTIGSDGKNLLQLLPIPKSSGNLIPLVQSSVMSDALKGNTGKPVQVTFQTQISSSSTSASVQLPIFQPASSSNYFLTRTVDTSEKGRVTSVGTGNFSSSVSKVQSHGVKIDGLTMQTFAVPPSTQKDSSFIVVNTQSLPVTVKSPVLPSGHHLQIPAHAEVKSVPASSLPPSVQQKILATATTSTSGMVEASQMPTVIYVSPVNTVKNVVTKNFQNIYPKPVTEIAKPVILNTTQIPKNVATETQLKGGQHSQAAPVKWIFQDNLQPFTPSLVPVKSSNNVASKILKTFVDRKNLGDNTINMPPLSTIDPSGTRSKNMPIKDNALVMFNGKVYLLAKKGTDVLPSQIDQQNSVSPDTPVRKDTLQTVSSSPVTEISREVVNIVLAKSKSSQMETKSLSNTQLASMANLRAEKNKVEKPSPSTTNPHMNQSSNYLKQSKTLFTNPIFPVGFSTGHNAPRKVTAVIYARKGSVLQSIEKISSSVDATTVTSQQCVFRDQEPKIHNEMASTSDKGAQGRNDKKDSQGRSNKALHLKSDAEFKKIFGLTKDLRVCLTRIPDHLTSGEGFDSFSSLVKSGTYKETEFMVKEGERKQQNFDKKRKAKTNKKMDHIKKRKTENAYNAIINGEANVTGSQLLSSILPTSDVSQHNILTSHSKTRQEKRTEMEYYTHEKQEKGTLNSNAAYEQSHFFNKNYTEDIFPVTPPELEETIRDEKIRRLKQVLREKEAALEEMRKKMHQK

Variants of: B1
Conditions: with cbx5_human CBX5, P45973
Chain of cbx5_human CBX5, P45973 (P45973 whole entry): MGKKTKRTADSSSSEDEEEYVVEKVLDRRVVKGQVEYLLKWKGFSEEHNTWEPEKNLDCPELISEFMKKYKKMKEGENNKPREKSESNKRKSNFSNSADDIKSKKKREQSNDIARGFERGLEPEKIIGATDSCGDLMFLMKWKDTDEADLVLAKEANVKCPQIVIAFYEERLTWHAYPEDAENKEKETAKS

Variant | effect of a mutation on the interaction
V582D;L584E | disrupting interaction strength
